Data reported in US20240254206A1 (ROCKEFELLER UNIVERSITY, published 2024).

The binders below were run against 2CC-core (assay: SPR, antigen on chip, IgG injected).

| Binder | Kd [nM] | koff [s⁻¹] | kon [M⁻¹ s⁻¹] |
| --- | --- | --- | --- |
| 12A21 (antibody, V domains shown, also called 12A21HC; 12a21kc) VH: SQHLVQSGTQVKKPGASVRVSCQASGYTFTNYILHWWRQAPGQGLEWMGLIKPVFGAVNYARQFQGRIQLTRDIYREIAFLDLSGLRSDDTAVYYCARDESGDDLKWHLHPWGQGTQVIVSP VL: DIQMTQSPSSLSASVGDRVTINCQAGQGIGSSLNWYQKKPGRAPKLLVHGASNLQRGVPSRFSGSGFHTTFTLTISSLQPDDVATYFCAVFQWFGPGTKVDIKR | 1.81 | 0.00033 | 182000 |
| 3BNC60 (antibody, V domains shown, also called 3BNC60HC; 3BNC60KC) VH: QVHLSQSGAAVTKPGASVRVSCEASGYKISDHFIHWWRQAPGQGLQWVGWINPKTGQPNNPRQFQGRVSLTRQASWDFDTYSFYMDLKAVRSDDTAIYFCARQRSDFWDFDVWGSGTQVTVSSASTKG VL: DIQMTQSPSSLSARVGDTVTITCQANGYLNWYQQRRGKAPKLLIYDGSKLERGVPARFSGRRWGQEYNLTINNLQPEDVATYFCQVYEFIVPGTRLDLKRTVAA | 54.5 | 0.00164 | 30200 |
| 3BNC117 (antibody, V domains shown, also called 3BNC117HC; 3bnc117kc) VH: QVQLLQSGAAVTKPGASVRVSCEASGYNIRDYFIHWWRQAPGQGLQWVGWINPKTGQPNNPRQFQGRVSLTRHASWDFDTFSFYMDLKALRSDDTAVYFCARQRSDYWDFDVWGSGTQVTVSSASTKG VL: DIQMTQSPSSLSASVGDTVTITCQANGYLNWYQQRRGKAPKLLIYDGSKLERGVPSRFSGRRWGQEYNLTINNLQPEDIATYFCQVYEFVVPGTRLDLKRTVAAPSVFIFPPSD | 36.8 |  |  |
| 3BNC55 (antibody, V domains shown, also called 3BNC55HC; 3BNC55KC) VH: QVQLVQSGTAVKRPGASVRVSCQASGYTFTDYFIYWWRQAPGQGLEWLGWINPLTSQPSYPSRFQGRLTLTRDTFDEMLYMDLRGLRSDDTGIYFCARRHSDYCDFDIWGSGTQIIVSS VL: DIQMTQSPSSLSASVGDKVTITCQTSAGYLNWYQQRRGRAPKLLMYDGSRLVTGVPSRFSGRRWGTQYNLTIGSLQPEDIATYYCQVYEFFGPGTRLDLKS | 25.7 |  |  |
| 3BNC66 (antibody, V domains shown, also called 3BNC66HC; 3bnc66kc) VH: QVQLVQSGAALKKPGASLRISCQTYGYKFTDHLIYWWRQAPGQGLEWIGWIKPETGQPSYSYRFQGRVSLTRDTFEEIAFMDLRGLRSDDTAIYFCARRHTDYCVFDVWGSGSQIIVSS VL: DIQMTQSPSSLSASVGDTVTITCQTNKGYLNWYQQRRGRAPKLLMYDGSKLVTGVPSRLSGRRWGTQYNLTIGSLQPEDIATYYCQVYEFFGPGTRLDLKR | 33.6 | 0.00133 | 39600 |
| 3BNC156 (antibody, V domains shown, also called 3BNC156HC; 3bnc156kc) VH: QVQLVQSGAALKKPGASLRISCQTYGYKFTDHLIYWWRQAPGQGLEWIGWIKPETGQPSYSYRFQGRVSLTRDTFEEIVFMDLRGLRSDDTAIYFCARRHSDYCDFDVWGGGSQVIVSS VL: DIQMTQSPSSLSASVGDTVTITCQTNKGYLNWYQQKRGRAPKLLMYDGSKLVTGVPSRLSGRRWGTQYNLTIGSLQPEDIATYYCQVYEFFGPGTRLDLKR | 81.2 | 0.00153 | 18800 |
| 12A12 (antibody, V domains shown, also called 12A12HC; 12a12kc) VH: SQQLVQSGTQVKKPGASVRISCQASGYSFTDYVLHWWRQAPGQGLEWMGWIKPVYGARNYARRFQGRINFDRDIYREIAFMDLSGLRSDDTALYFCARDGSGDDTSWHLDPWGQGTLVIVSA VL: DIQMTQSPSSLSASVGDRVTITCQAGQGIGSSLQWYQQKPGKAPKLLVHGASNLHRGVPSRFSGSGFHTTFSLTISGLQRDDFATYFCAVLEFFGPGTKVEIKR | 0.0269 | 1.7e-06 | 63300 |
| 8ANC131 (antibody, V domains shown, also called 8ANC131HC; 8ANC131KC) VH: QGQLVQSGGGLKKPGTSVTISCLASEYTFNEFVIHWIRQAPGQGPLWLGLIKRSGRLMTAYNFQDRLRLRRDRSTGTVFMELRGLRPDDTAVYYCARDGLGEVAPDYRYGIDVWGQGSTVIVTA VL: EIVLTQSPATLSLSPGERATLSCRASQGLNFVVWYQQKRGQAPRLLIHAPSGRAPGVPDRFSARGSGTEFSLVISSVEPDDFAIYYCQEYSSTPYNFGPGTRVDRKR | 66.1 | 0.00323 | 48800 |
| 8ANC134 (antibody, V domains shown, also called 8ANC134HC; 8ANC134KC) VH: QGQLVQSGGGVKKPGTSVTISCLASEYTFNEFVIHWIRQAPGQGPVWLGLIKRSGRLMTSYKFQDRLSLRRDRSTGTVFMELRGLRLDDTAVYYCARDGLGEVAPAYLYGIDAWGQGSTVIVTS VL: EIVLTQSPATLSLSPGERATLSCRASQGLNFVVWYQQKGGQAPRLLIHGPTDRAPGVPDRFSARGSGTEFSLVISSVEPDDFALYYCQEYSSTPYNFGPGTRVDRKR | 46.1 | 0.000957 | 20800 |
| 8ANC195 (antibody, V domains shown, also called 8ANC195HC; 8ANC195KC) VH: QIHLVQSGTEVKKPGSSVTVSCKAYGVNTFGLYAVNWVRQAPGQSLEYIGQIWRWKSSASHHFRGRVLISAVDLTGSSPPISSLEIKNLTSDDTAVYFCTTTSTYDKWSGLHHDGVMAFSSWGQGTLISVSA VL: DIQMTQSPSTLAASIGGTVRVSCRASQSITGNWVAWYQQRPGKAPRLLIYRGAALLGGVPSRFSGSAAGTDFTLTIGNLQAEDFGTFYCQQYDTYPGTFGQGTKVEVKR | 54.7 | 0.00132 | 24100 |
| 1NC9 (antibody, V domains shown, also called LSSNEC9HC; LSSNEC9LC) VH: QVRLVQSGAQLKKPGASVTVSCEASGYNFVNYIINWVRQTPGRSFEWVGMIDPRRGRPWSAQKFQGRLTLTRDIDSEKLYMHLSGLRGDDTAVYYCARQDSDFHDGHGHTLRGMFDSWGQGSPVTVSS VL: QVLSVSGTPGQRVIISCSGTSSNVGGNLVSWYQHLPGAAPRLLIHRDDQRPSGVPDRFSGSKSGNSASLVISGLRSDDEADYFCAAYDSTFSLPVFGGGTRLTVLS | 4.61 | 0.000236 | 51100 |
| 1B2530 (antibody, V domains shown, also called LSSB2530HC; LSSB2530LC) VH: QVRLEQSGAAMRKPGASVTLSCQASGYNFVKYIIHWVRQKPGLGFEWVGMIDPYRGRPWSAHKFQGRLSLSRDTSMEILYMTLTSLKSDDTATYFCARAEAASDSHSRPIMFDHWGQGSRVTVSS VL: QSALTQPPSASGAPGQRVTISCSGGPSNVGGNYVYWYRQFPGTAPTLLILRDDQRPSGVPDRFSASKSGNSASLAISGLRPDDEGFYFCATYDSDGSIRLFGGGTALTVLS | 5.9 | 0.000402 | 68300 |
| NIH45-46 (antibody, V domains shown) VH: QVRLSQSGGQMKKPGESMRLSCRASGYEFLNCPINWIRLAPGRRPEWMGWLKPRGGAVNYARKFQGRVTMTRDVYSDTAFLELRSLTSDDTAVYFCTRGKYCTARDYYNWDFEH VL: EIVLTQSPATLSLSPGETAIISCRTSQSGSLAWYQQRPGQAPRLVIYSGSTRAAGIPDRFSGSRWGADYNLSISNLESGDFGVYYCQQYEFFG | 4.4 | 0.000494 | 112000 |
